In general, Kd refers to the equilibrium constant for the complex coming apart.

Bridges are numbered along the chain shown (N, C = ends). [ ]: non-standard residue; d: D form. fluorescein = fluorescein label; Ahx = NCCCCCC(=O)O A value given as a limit tells only on which side of the number the result lay.

Experimental findings from patent US20030069395A1 (DYAX, published 2003) are described below.

First the molecules themselves.
B1: DX-315, Ac-AEGTGDDWDCVTRWANRDQQCWALDPE-X-K-NH2 (peptide)
peptide: Ac-AEGTGDDWDCVTRWANRDQQCWALDPE[Ahx]K(fluorescein)-NH2
modifications: not fully specified (bridges); printed as Ac-AEGTGDDWDCVTRWANRDQQCWALDPE-X-K-NH2; cysteine pairing not given here
B2: alanine mutant of DX-236, Ac-AEGTGDFWFCDRIAWYPQHACEFLDPEGGGK-NH2 (peptide)
peptide: Ac-AEGTGDFWFCDRIAWYPQHACEFLDPEGGGK-NH2
modifications: cysteine pairing not given here; also: fluorescein label, position not given here

One experiment concerns the target T1, human serum albumin (HSA) (human, UniProt P02768 25-609).
T1 construct: also called caprylate-biotinylated-HSA
Put plainly: fluorescence anisotropy; pH 7.4, 0.14 M NaCl, no caprylate. On the procedure:
(§1) Affinity determinations were made by first labeling polypeptides on the C-terminal end with NHS-fluorescein. Fluorescence anisotropy measurements were performed in 384-well microplates in a volume of 10 μl in binding buffer using a Tecan Polarion fluorescence polarization plate reader. The concentration of fluorescein labeled peptide was held constant (20 nM), and the concentration of HSA was varied. For pH 6.2, 7.1, and 7.4 binding conditions, a 3 mM phosphate, 0.01% Tween-20 buffer was used. For pH 9.1 binding conditions, a 3 mM sodium bicarbonate buffer, 0.01% Tween-20 nonionic detergent buffer was used. Once NaCl was added to any of these buffers, their pH was adjusted again to achieve the original pH. The binding mixtures were equilibrated for 10 minutes in the microplate at 30° C. prior to performing the measurement. The observed change in anisotropy was fit to the equation below via nonlinear regression to obtain the apparent KD. This equation assumes that the peptide and HSA form a reversible complex with 1:1 stoichiometry.
For orientation: Polarisation of emitted light reports the rotation of a fluorescent probe.
In turn, Ac-AEGTGSWKVCDHFFCLSPAPE[Ahx]K(fluorescein)-NH2 (disulfide 10-15) [DX-297, Ac-AEGTGSWKVCDHFFCLSPAPE-X-K-NH2] displayed a dissociation constant Kd greater than 200000 nM. Consider Ac-AEGTGDDWQCVKDWANRRRGCMADDPE[Ahx]K(fluorescein)-NH2 (disulfide 10-21) [DX-319, Ac-AEGTGDDWQCVKDWANRRRGCMADDPE-X-K-NH2], for which the dissociation constant (Kd) is greater than 200000 nM.

A further experiment concerns the target T1, human serum albumin (HSA). Nature of the experiment: fluorescence anisotropy; pH 6.2, 0.14 M NaCl, no caprylate. On the procedure:
as §1
Regarding B1, the Kd is greater than 200000 nM. Still for that read-out and setting: under Ac-AEGTGSHVGCNNALCMQYAPE[Ahx]K(fluorescein)-NH2 (disulfide 10-15) [DX-296, Ac-AEGTGSHVGCNNALCMQYAPE-X-K-NH2] stands greater than 100000 nM; under Ac-AEGTGSWKVCDHFFCLSPAPE[Ahx]K(fluorescein)-NH2 (disulfide 10-15) [DX-297, Ac-AEGTGSWKVCDHFFCLSPAPE-X-K-NH2], greater than 200000 nM; under Ac-AEGTGDDWQCVKDWANRRRGCMADDPE[Ahx]K(fluorescein)-NH2 (disulfide 10-21) [DX-319, Ac-AEGTGDDWQCVKDWANRRRGCMADDPE-X-K-NH2], greater than 200000 nM.

In the next experiment the target is T1, human serum albumin (HSA). Put plainly: fluoresceinated peptide; 3 mM phosphate buffer, pH 6.2, no salt. On the procedure:
as §1
Each of the polypeptides was fluoresceinated and tested for binding against an immobilized HSA target as described above.
As for Ac-AEGTGAFWFCDRIAWYPQHLCEFLDPEGGGK-NH2 (cysteine pairing not given here; also: fluoresceinated, site not given here) [alanine mutant of DX-236, Ac-AEGTGAFWFCDRIAWYPQHLCEFLDPEGGGK-NH2], the Kd turned out to be 5100 nM. For B2, the Kd stood at 2000 nM. On to Ac-AEGTGDFWFCDRIAAYPQHLCEFLDPEGGGK-NH2 (cysteine pairing not given here; also: fluoresceinated, site not given here) [alanine mutant of DX-236, Ac-AEGTGDFWFCDRIAAYPQHLCEFLDPEGGGK-NH2], for which the dissociation constant Kd was found to be 1400 nM.

As to Ac-AEGTGDFWFCDAIAWYPQHLCEFLDPEGGGK-NH2 (cysteine pairing not given here; also: fluoresceinated, site not given here) [alanine mutant of DX-236, Ac-AEGTGDFWFCDAIAWYPQHLCEFLDPEGGGK-NH2], the Kd came out at 1500 nM. In the case of Ac-AEGTGDFWFCDRIAWYAQHLCEFLDPEGGGK-NH2 (cysteine pairing not given here; also: fluoresceinated, site not given here) [alanine mutant of DX-236, Ac-AEGTGDFWFCDRIAWYAQHLCEFLDPEGGGK-NH2], the dissociation constant Kd stood at 1300 nM.

On to Ac-AEGTGDAWFCDRIAWYPQHLCEFLDPEGGGK-NH2 (cysteine pairing not given here; also: fluoresceinated, site not given here) [alanine mutant of DX-236, Ac-AEGTGDAWFCDRIAWYPQHLCEFLDPEGGGK-NH2], for which the Kd came out at 5100 nM. Ac-AEGTGDFWFCDRIAWAPQHLCEFLDPEGGGK-NH2 (cysteine pairing not given here; also: fluoresceinated, site not given here) [alanine mutant of DX-236, Ac-AEGTGDFWFCDRIAWAPQHLCEFLDPEGGGK-NH2]: the Kd came to 1400 nM. On to Ac-AEGTGDFAFCDRIAWYPQHLCEFLDPEGGGK-NH2 (cysteine pairing not given here; also: fluoresceinated, site not given here) [alanine mutant of DX-236, Ac-AEGTGDFAFCDRIAWYPQHLCEFLDPEGGGK-NH2], for which the Kd was 2300 nM. For the molecule Ac-AEGTGDFWFCDRIAWYPAHLCEFLDPEGGGK-NH2 (cysteine pairing not given here; also: fluoresceinated, site not given here) [alanine mutant of DX-236, Ac-AEGTGDFWFCDRIAWYPAHLCEFLDPEGGGK-NH2], the Kd stood at 2200 nM.

The target in the next experiment is T1, human serum albumin (HSA). Put plainly: fluorescence anisotropy; pH 7.4, 0.14 M NaCl, 0.1% caprylate. How it is done:
as §1
Once all the positive phage isolates were sequenced, peptides corresponding to the display peptide were synthesized. A small amount of constant phage sequence surrounding each varied amino acid sequence region was retained and either a -GGGK-NH₂ (SEQ ID NO: 24) amino acid sequence or -X-K-NH₂ C-terminal tail was added to each peptide, where X is 6-aminohexanoic acid and K-NH₂ is an amidated terminal lysine residue. The constant phage sequence was retained because these residues can often play a role in target binding. To determine its affinity for HSA , each peptide was labeled with fluorescein on the C-terminal lysine side chain.
As for B1, the Kd was greater than 100000 nM. As to Ac-AEGTGSHVGCNNALCMQYAPE[Ahx]K(fluorescein)-NH2 (disulfide 10-15) [DX-296, Ac-AEGTGSHVGCNNALCMQYAPE-X-K-NH2], the equilibrium dissociation constant (Kd) was greater than 200000 nM. On to Ac-AEGTGSWKVCDHFFCLSPAPE[Ahx]K(fluorescein)-NH2 (disulfide 10-15) [DX-297, Ac-AEGTGSWKVCDHFFCLSPAPE-X-K-NH2], for which the dissociation constant Kd is greater than 200000 nM.
